Laboratory results as given in the nanobody polyreactivity screen of Harvey et al. (2022).

Assay: yeast display, Sf9 membrane polyspecificity reagent, FACS + sequencing; frameworks hold sequencing errors
Procedure, shortened: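 Using colony PCR, genes from sorted yeast display clones were amplified, then sequenced on MiSeq at 2 × 250 and filtered by CDR length. The clones had been stained with 10% biotinylated, detergent-solubilized Sf9 membrane reagent for 1 hour at 4 °C and sorted by FACS into low and high (top ~1%) gates on anti-HA and streptavidin fluorescence. Polyreactivity labels come from the gate of origin.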
In the case of “QVQLVESGGGLVQAGGSLRLSCAASGIIFPYYAMGWYRPAPGKERELVAAITSSGGSTYYADSVKGRFTISRDNAKNTVYLQMNSLKPEDSAVYYCAAQTWGHGGDSWGQGTQVTVSS”, the “polyreactivity (PSR sort gate)” value is reported as “high polyreactivity”. With “QVQLVESGGGIVQAGGSLRLSCAASGFTFRYNTMGWYRQAPGKERELVAAITSRGTSTYYADSVKGRFTISRDNAKNTVYLQMYSLKPEDTAVYYCNKVYFKGTTRLSVSVYKLEYWGQGTQVTVSS” the “polyreactivity (PSR sort gate)” value was “high polyreactivity”. In the case of “QVQLVESGGGLVQAGGSLRLSCAASGFIFFQYAMGWYRQAPGKERELVAAISGSGVTTYYADSVKGRFTISRDNAKNTVYLQMKSLKPEDTPVYYCAARPSGRGYYLLGYWGQGTQVTVSS”, the “polyreactivity (PSR sort gate)” value is reported as “low polyreactivity”. For “QVQLVESGGGLVQAGGSLRLSCAASGRIFRYNAMGWYRQAPGKEREFVAAISWSGDRTYYADSVKGRFTISRDNAKNTGYLQMNSLKTEDTAVYYCADVPATSYPRRYVYAYYYWGQGTQVTVSS”, the “polyreactivity (PSR sort gate)” value was “high polyreactivity”. For “QVPLQVSGGYLVQAGGSVRLSCAASGTIYGLTALGWYRQAPGKEREFVAAITDGGNTNYADSVKGRFTISRDNAKNTVYLQMLSLKPEDTAVYYCAVLFSDDAYYAYWGQGTQVTVSS”, the “polyreactivity (PSR sort gate)” value was “low polyreactivity”. For “QVQLVESGGGLVQAGGSLRLSCAASGSTLFSYAMGWYRQAPRKEREFVAAISRRGGSTYYADSVKGRFTISRDNAKNTVYLQMNSLKPEVTAVYYCNTVRVHGFPIDRIYVYWGQGTQVTVSS”, the “polyreactivity (PSR sort gate)” value was “high polyreactivity”. For “QVQLVESCGGLVQAGGSLRLSCAASGSTFGYYTMGWYRQAPGKEREFVAAITRSTGSTFYADSVKGRFTISRDNAKNTVYLQMNRLKPEDTAVYDCAATQPWYNTRTRYGSWGQGTQVTVSS”, the “polyreactivity (PSR sort gate)” value was “low polyreactivity”. In the case of “QVQLVESGGGLVQAGGSLRLSCAASGFIFRGNAMGWYRQAPGKERELVAAISVRGGRTYYADSVKGRFTISRDNAKNTVYLQMNSLKPEDTAVYYCAADLYNRGRGSSQSYRTGYDYWGQGTQVTVSS”, the “polyreactivity (PSR sort gate)” value is reported as “high polyreactivity”. With “QVQLVESGGGLVQAGGSLRLSCAASGNIFSRYAMGWYRQAPGKERELVAAISSSGGTTYYADSVKGRFTISRDNAKNTVYLHMNSLKPEDTAVYYCNARRRQIYSEFGYWGQGTQVTVSS” the “polyreactivity (PSR sort gate)” value was “high polyreactivity”. With “QVQLVESGGGLVQAGGSLRLSCAASGSTFNGYVMGWYRQAPGKERELVAAISRSGGSTYYADSVKGRFTISRDNAKNNVYLQMYSLKPEDTAVYSCAKGGYQHYWGQGTQVTVSS” the “polyreactivity (PSR sort gate)” value was “high polyreactivity”. In the case of “QVQLVESGGGLVQAGGSLRLSCAASGSIFRTYTMGWYRQAPGKEREFVAAISRSGGSTYYADSVKGRFTISRDNAKNTVYLQMNSLKPEDTAVYYCNARCGLGSYGYWGQGTQVTVSS”, the “polyreactivity (PSR sort gate)” value is reported as “high polyreactivity”. In the case of “QVQLVESGGGLVQAGCSLRLICAASGFIFPTNAMGWYRQAPGKERELVARISYGGGDTHYADSVKGRFTISRANAKTTVYLQMNSLKPEDTAVHYCAVKDGQDDYWGQGTQVTVSS”, the “polyreactivity (PSR sort gate)” value is reported as “low polyreactivity”. For “QVQLVESGGGLVQAGGSLRLSCAASGFTFWWYAMGWYRQAPGKERELVAAISSGGSTNYADSVKGRFTISRDNAKNTVYLQMNSLKPEDTAVYYCNALGVGHSGFTKFSRYYYWGQGTQVTVSS”, the “polyreactivity (PSR sort gate)” value was “high polyreactivity”. In the case of “QVQLVESGGGLVQAGGSLRLSCAASGIIFVLYTMGWYIQAPGKERELVATINWGGGNTYYADSVKGRFTISRDNAKNTVYFQMNSLKPEDTAVYYCAAAYTWYGYSQAYYYWGQGTQVTVSS”, the “polyreactivity (PSR sort gate)” value is reported as “low polyreactivity”. For “QVQLVDSGGGLVQAGGSLRLTCAACGSIFVNNSMGWSRQATGKQRELVAAISSRSSRTFYADSVKGRFTISRDNEKNTVFLQMNSLKPEDNAVYYCAVKKRAPDGDYWGLGTQVTVSS”, the “polyreactivity (PSR sort gate)” value was “high polyreactivity”. In the case of “GSTIYADSVKGRFTISRDNAKNTVYLQMNSLKPEDTAVYYCNKDDRNDRTIPGYDPEYDYWGQGTQVTVSS”, the “polyreactivity (PSR sort gate)” value is reported as “low polyreactivity”. With “QVQLVESGGGLVQAGGSLRLSCAPSGSIFEINAMGWYRQAPGKERELVAAITGSGGSTHYADSVKGRFTISRDNAKKTVYLEMNSLKPEDTAVYYCAAVQRYQYGYWGQGTQVTVSS” the “polyreactivity (PSR sort gate)” value was “low polyreactivity”. For “QVQLVESGGGLVQAGGSLRLSCAASGFTFRDYAMGWYRQAPGKERELVAAISFSGGRTFYADSVKGRFTISRDNAKNTVYLQMNSLKPEDTAVYYCNAQYLTYRYYPRRNLDYWGQGTQVTVSS”, the “polyreactivity (PSR sort gate)” value was “high polyreactivity”. For “QVQLVESGGGLVQAGGILRLSCAASGFIFAYYAMGWYRQAPGKERELVAAITRRGGSTSYADSVKGRFTISRDNAKNTVYLQMNSLKPEDTAVYYCNAVSKYDYGYWGQGTQVTVSS”, the “polyreactivity (PSR sort gate)” value was “high polyreactivity”. With “QVQLVESGGGLVQAGGSLRLSCAASGLIFYRYAMGWYRQAPGKERELVAAISSGGSTYYADSVKGRFTISRDNAKNTVYLQMNSLKPEDTAVYYCADRTRVSPQIHIYRAYGYWGQGTQVTVSS” the “polyreactivity (PSR sort gate)” value was “high polyreactivity”. In the case of “QVQLVESGGGIVQAGGSLRLSCAASGFIFRYAMGWYRPAPGKERELVAAISSSGGSTNYADSVKGRFTISRDNAKNTVYLQMNILKPEDSAVYYCAADQYYGGSWWYDYWGQGTQVSVSS”, the “polyreactivity (PSR sort gate)” value is reported as “high polyreactivity”. In the case of “QVQLVESGGGLVQAGGSLRLSCAASGRIFRGYAMGWYRQAPGKERELVAAISRSGGSTYYADSVKGRFTISRDNAKNTVYLQMNSLKPEDTAVYYCAAVPYYVWYYYPIGGYWGQGTQVTVSS”, the “polyreactivity (PSR sort gate)” value is reported as “high polyreactivity”. With “QVQLVESGGGLVQAGGSLRLSCADSGLTFSVYTMGWYRQAPGKERELVAAITTSGGRTYYADSVKGRFTISRDNAKNTVYLQKNSLKPEDTAVYYCAAVRTGDTTGTMGYWGQGTQVTVSS” the “polyreactivity (PSR sort gate)” value was “high polyreactivity”. For “QVQLVESGGGLVQAGGSLRLSCAASGRTFKYYAMGWYRQAPGKERELVAGITGRGGGTYYADSVKGRFTISRDNAKNTVYLQMNSLKPEDTAVYYCAAERIYWKYYEYDYWGQGTEVTVSS”, the “polyreactivity (PSR sort gate)” value was “high polyreactivity”. With “QVQLVESGGGLVQAGGSLRLSCAASGYILRNAMGWYRQAPGKERELVAAIRFRGGSTSYADSVKGRFTISRYNAKNTVYLQMKSLKPEDTAVYYCNALWWVIRPYQRHDYWGQVTQVTVSS” the “polyreactivity (PSR sort gate)” value was “low polyreactivity”. For “QVQLVESGGGLVQAGGSLRLSCAASGRIFVYNVMGWYSQSPGKERELVAAISWGTGSTYADSVKGRFTISRDNAKNTVYLQMNSLKPEDTAVYYCADDSFIPPYDHWGQGTQVTVSS”, the “polyreactivity (PSR sort gate)” value was “low polyreactivity”. With “QFQLVESGGGLVQAGGILRLSCAASGSTFCVYAMGWYRQAPGKERELVATINSGGSTNYADSVKGRFTISRDNAKNTVYLQMNSLKPEDTAVYYCAAGPFWQDFYVYEYDYWGQGTQVTVSS” the “polyreactivity (PSR sort gate)” value was “low polyreactivity”. For “QVQLVESGGGLVQAGGSLRLSCAASGFTFNYYPMGWYRQAPGKERELVAAIDSGGNTYYADSVKGRFTISRDNAKNTVYLQMNSLKPEDTAVYYCAAYRDYQYDFWGQGTQVTVSS”, the “polyreactivity (PSR sort gate)” value was “low polyreactivity”. In the case of “QVQLVESGGGLVQAGGSLRLSCAASGRNFGSYAMGWYRQAPGKERELVAGIRSVGSTNYADSVKGRFTISRDNAKNTVYLQMNSLKPEDTAVYYCAARLWHLSYAGQGGDYWGQGTQVTVSS”, the “polyreactivity (PSR sort gate)” value is reported as “low polyreactivity”. With “QDQLVESGGGLVQAGGSLRLSCAASGFTFGRYAMGWYRQAPGKERELVATITRTGSTNYADSVKGRFTISRDNAKNTVDLQMHSLKPEDTAVYYCNAVYSGWRYVKYDYWGPGTQVTVSS” the “polyreactivity (PSR sort gate)” value was “low polyreactivity”. For “QVQLVESGGGLVQAGGSLRLSCAASGSIFGKYVMGWYRQAPGKERELVAAITFGGGSTYYADSVKGRFTISRDNAKNTVYFQMNSLKPEDTAVYYCAAKSYDERLYRRPRDYWGQGTQVTVSS”, the “polyreactivity (PSR sort gate)” value was “high polyreactivity”. In the case of “QVQLVESGGGLVQAGGSLRLSCAASGLIFYSNAMGWYRQAPGKDRELVAAITTSGSSTYYADSVKGRFTISRDNAKNTVYIPMNSLKPEDTAVYYCATEWRSNYWGQGTQVTVSS”, the “polyreactivity (PSR sort gate)” value is reported as “low polyreactivity”. In the case of “QVQLVESGGRLVQAGGSLRLSCAASGSTIYPNAMGWYRPAPGTERELVAGITTIGGSTYYADSVKGRFTISRDNAKNTVYLQMNSLKPEDTAVYYCAARWTFSTWIGFDYWGQGTQVTVSS”, the “polyreactivity (PSR sort gate)” value is reported as “low polyreactivity”. For “QVHLVESGGGLVQAGGSHRLSCAASGSTLRWNAMGWYRQAPGKERELVAAITYSGGSTYYADSVKGRFTISRDNAKNTVYFQMNSLKPEDTAVYYCAADSYRYRPGYGPVLYDYWGQGTQVTVSS”, the “polyreactivity (PSR sort gate)” value was “high polyreactivity”. With “QVQLVESGGGLVQAGGSLRLSCAASGIIFGYYAMGWYRQATGKERELVAAINGRTGSTYYADSVKGRFTISRDNAKNTVYLQMNSLKPEDTAVYYCTAQSYKFHGDYWGQGTQVTVSS” the “polyreactivity (PSR sort gate)” value was “high polyreactivity”. For “QVHLVESGGGLVQAGGSLRLSCDASGLTLWTYAMGWSRQAAGKEMELVARIRSGGSTYYADSVKGRFTFSRDNAKNTVYLQMNSLKPEDTAVYSCNAKRYGRWAAAGRVGYDYWGQGTQVTVSS”, the “polyreactivity (PSR sort gate)” value was “high polyreactivity”. In the case of “QVQLVESGGGLVQAGGSLRLSCAASGSTFTYYAMGWYRQAPGKERELVASITTSGGDTNYADSVKGRFTISRDNAKNTVYLQMNSLKPEDTAVYYCAADLYDPYHVYGYNYWGQGTQVTVSS”, the “polyreactivity (PSR sort gate)” value is reported as “low polyreactivity”. In the case of “QVQLVESVGGLVQAGGSLRLSCAASGFIFWDYAMGWYRQAPGKERELVAAISDSGGDTYYADSVKGRFTISRDIAKNTVYLQMNSLKPEDTAVYYCAADVELWVFRGQQYDYWGQGTQVTVSS”, the “polyreactivity (PSR sort gate)” value is reported as “low polyreactivity”. In the case of “QVQLVESGGGLVQAGGSLRLSCAASGYIFVKNAMGWYRQAPGTERELVAAISTRGGRTYYADSVKGRFTISRDNAKNTVYLQMNSLKPEDTAVYYCAAVHQTSYYDANSYGYWGQGTQVTVSS”, the “polyreactivity (PSR sort gate)” value is reported as “high polyreactivity”. In the case of “QVQLVESGGGLGQAGGSLRLSCAASGRIFNTYAMGWYRQAPGKERELVAAITRSAGRTYYADSVKGRFTISRDNAKNTGYLQMNSQKPEDTAVYYCAAQYNYGQRSGPYGYWGQGTQVTVSS”, the “polyreactivity (PSR sort gate)” value is reported as “low polyreactivity”. In the case of “QVQLVESGGGLVQAGGSLRLSCAASGRIFAGNAMGWYRQAPGKERELVAVISKGGGRTYYADSVKGRFTFSRDNAKNTVYLQMNSLKPEDTAVYYCAVRTLQRGKHDLGVDYWGQGTHVTVSS”, the “polyreactivity (PSR sort gate)” value is reported as “high polyreactivity”. With “QVQLVESGGGLVQAGGSLRLSCAASGSTFYYYAMGWYRQAPGKERELFATINKNVGITYYADSVKGRFTISRDNAKNTVYLQRNSMKTEVTAVDYCAAHGRINPDGPRTVFFASEEDYWGQGTQVTVSS” the “polyreactivity (PSR sort gate)” value was “low polyreactivity”. In the case of “QVQLVESGGGLVQAGGSLRLSCAASGSTFSTYAMGWYRQAPGKEREFVAAIRWSGGSTYYADSVKGRFTISRDNAKNTVYLQMNSLKREHTAVYYSAKGIRRWYGGCDYWGQGTKVTVSS”, the “polyreactivity (PSR sort gate)” value is reported as “low polyreactivity”.
